pKd: −log10 of the molar value. Some results are limits rather than exact numbers.

The values that follow come from publication doi:10.1101/2025.10.22.684031.

Targets include N49P7-FR IgG1; eN49P7-FRv1-23 IgG1; N49P7 IgG1.
What all share (assay): SPR
For orientation: Surface plasmon resonance follows binding to a sensor surface in real time, without labels.

N49P7 IgG1, sequence (heavy, as listed by the source, chain 1 of 2): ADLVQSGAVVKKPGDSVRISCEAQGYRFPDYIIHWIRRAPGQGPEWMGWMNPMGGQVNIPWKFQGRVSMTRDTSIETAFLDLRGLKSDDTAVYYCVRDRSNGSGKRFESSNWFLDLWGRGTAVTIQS
N49P7 IgG1, sequence (light, as listed by the source, chain 2 of 2): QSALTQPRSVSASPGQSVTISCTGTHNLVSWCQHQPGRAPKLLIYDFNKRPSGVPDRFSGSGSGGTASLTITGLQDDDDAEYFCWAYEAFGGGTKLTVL
N49P7-FR IgG1, sequence (VH, as listed by the source, chain 1 of 2): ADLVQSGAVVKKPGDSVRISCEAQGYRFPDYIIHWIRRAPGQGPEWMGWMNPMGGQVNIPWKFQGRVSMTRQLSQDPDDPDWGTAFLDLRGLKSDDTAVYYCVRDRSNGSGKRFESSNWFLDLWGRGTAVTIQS
N49P7-FR IgG1, sequence (VL, as listed by the source, chain 2 of 2): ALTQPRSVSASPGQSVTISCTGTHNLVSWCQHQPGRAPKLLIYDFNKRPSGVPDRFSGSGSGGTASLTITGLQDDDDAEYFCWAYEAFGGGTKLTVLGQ
eN49P7-FRv1-23 IgG1, sequence (VH, as listed by the source, chain 1 of 2): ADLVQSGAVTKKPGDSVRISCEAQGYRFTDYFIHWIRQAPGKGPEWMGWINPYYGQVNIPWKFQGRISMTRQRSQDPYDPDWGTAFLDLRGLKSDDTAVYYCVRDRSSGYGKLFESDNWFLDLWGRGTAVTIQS
eN49P7-FRv1-23 IgG1, sequence (VL, as listed by the source, chain 2 of 2): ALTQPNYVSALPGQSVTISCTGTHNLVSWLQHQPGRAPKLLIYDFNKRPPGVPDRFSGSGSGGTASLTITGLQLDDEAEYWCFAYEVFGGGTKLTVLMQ

For orientation: pKd means the negative decadic logarithm of the Kd, by convention in mol/L. High values mean a low Kd, low ones a high Kd. Usually koff stands for a measure of how fast the partners let go of each other. Read a low koff as slow dissociation. In general, kon refers to the rate constant with which the complex forms. Read a low kon as slow association. In the assay with N49P7-FR IgG1, “HIV gp120 93TH057 (clade AE) (natural protein)” had a pKd of 7.72, a koff of 0.0022 s⁻¹ and a kon of 120000 M⁻¹ s⁻¹. In the assay with eN49P7-FRv1-23 IgG1, this substance had a negative logarithm of the Kd (pKd) of 7.54, a koff of 0.0015 s⁻¹ and a kon of 51000 M⁻¹ s⁻¹.
In the assay with N49P7-FR IgG1, “HIV gp120 CH119 (clade BC) (natural protein)” had a pKd of 6.96, a koff of 0.0008 s⁻¹ and a kon of 7400 M⁻¹ s⁻¹. In the assay with eN49P7-FRv1-23 IgG1, this substance gave a pKd of 7.70, a koff of 0.00053 s⁻¹ and a kon of 27000 M⁻¹ s⁻¹.
As to “HIV gp120 CAP45 (clade C) (natural protein)”, in the assay with N49P7-FR IgG1, the pKd is 6.85, the koff was found to be 0.0017 s⁻¹ and the kon was 12000 M⁻¹ s⁻¹. In the assay with eN49P7-FRv1-23 IgG1, this substance had a pKd of 7.51, a koff of 0.0031 s⁻¹ and a kon of 100000 M⁻¹ s⁻¹.
As for “HIV gp120 Ce1176 (clade C) (natural protein)”, in the assay with N49P7-FR IgG1, the pKd is 7.20, the off-rate constant (koff) is 0.00059 s⁻¹ and the kon was determined as 9400 M⁻¹ s⁻¹. Besides, in the assay with eN49P7-FRv1-23 IgG1, the pKd was 7.77, the koff was determined as 0.00069 s⁻¹ and the kon came to 42000 M⁻¹ s⁻¹.
Consider “HIV gp120 IAVI-C22 (clade C) (natural protein)”, for which the negative logarithm of the Kd (pKd) with N49P7-FR IgG1 is less than 6.00; with eN49P7-FRv1-23 IgG1, 7.19; with N49P7 IgG1, 6.64. Besides, the off-rate constant (koff) was found to be 0.0014 s⁻¹ with N49P7-FR IgG1, 0.00092 s⁻¹ with eN49P7-FRv1-23 IgG1 and 0.0011 s⁻¹ in the assay with N49P7 IgG1. Also, the on-rate constant (kon) is 200 M⁻¹ s⁻¹ with N49P7-FR IgG1, 14000 M⁻¹ s⁻¹ with eN49P7-FRv1-23 IgG1 and 4900 M⁻¹ s⁻¹ with N49P7 IgG1.
“HIV gp120 6041.v3 (clade AC) (natural protein)”: the pKd with N49P7-FR IgG1 is 6.72; with eN49P7-FRv1-23 IgG1, 7.62; in the assay with N49P7 IgG1, 7.00. Besides, the results for the off-rate (koff) in the assay with N49P7-FR IgG1, with eN49P7-FRv1-23 IgG1 and in the assay with N49P7 IgG1 were 0.0026 s⁻¹, 0.001 s⁻¹ and 0.0032 s⁻¹, respectively. The kon was 14000 M⁻¹ s⁻¹ with N49P7-FR IgG1, 44000 M⁻¹ s⁻¹ with eN49P7-FRv1-23 IgG1 and 31000 M⁻¹ s⁻¹ with N49P7 IgG1.
On to “HIV gp120 TRO.11 (clade B) (natural protein)”, for which, in the assay with N49P7-FR IgG1, the pKd is 6.92, the koff was 0.0012 s⁻¹ and the kon is 9900 M⁻¹ s⁻¹. In the assay with eN49P7-FRv1-23 IgG1, this substance gave a pKd of 7.36, a koff of 0.00074 s⁻¹ and a kon of 17000 M⁻¹ s⁻¹.
In the assay with N49P7-FR IgG1, “HIV gp120 CNE8 (clade AE) (natural protein)” had a pKd of 7.82, a koff of 0.0013 s⁻¹ and an association rate constant (kon) of 88000 M⁻¹ s⁻¹. In the assay with eN49P7-FRv1-23 IgG1, this substance showed a pKd of 7.33, a koff of 0.0011 s⁻¹ and a kon of 24000 M⁻¹ s⁻¹. For the same substance, in the assay with N49P7 IgG1, the pKd is 7.14, the koff was 0.00079 s⁻¹ and the kon stood at 11000 M⁻¹ s⁻¹.
Consider “HIV gp120 BJOX2000 (clade BC) (natural protein)”, for which, in the assay with N49P7-FR IgG1, the pKd was less than 6.00, the koff was 0.0025 s⁻¹ and the kon stood at 280 M⁻¹ s⁻¹. Besides, in the assay with eN49P7-FRv1-23 IgG1, the pKd is 7.30, the dissociation rate constant (koff) stood at 0.00092 s⁻¹ and the kon was determined as 18000 M⁻¹ s⁻¹. In the assay with N49P7 IgG1, the pKd was less than 6.00, the dissociation rate constant (koff) amounted to 0.0024 s⁻¹ and the kon came out at 680 M⁻¹ s⁻¹.
